Test results as given in publication PMC2992793 (Structure (London, England : 1993), 2010).
Blank lines part the entries; values can stand above or below the binder they belong to.

How the values were obtained:
[1] = molecular target: T1, His-tagged μ2C (μ2 170–435), wild type (rat, UniProt P84092 170-435); test: pull-down
T1 sequence (looked up): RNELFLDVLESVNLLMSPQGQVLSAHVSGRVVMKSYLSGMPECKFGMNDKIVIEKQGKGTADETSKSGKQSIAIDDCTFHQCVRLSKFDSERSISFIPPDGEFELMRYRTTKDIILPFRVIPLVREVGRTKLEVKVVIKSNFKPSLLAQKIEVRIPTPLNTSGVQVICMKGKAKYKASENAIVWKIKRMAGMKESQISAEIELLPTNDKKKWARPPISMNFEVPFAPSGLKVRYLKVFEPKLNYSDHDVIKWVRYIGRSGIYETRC

[2] = molecular target: T2, Dvl2 Lys446Met (construct not stated) (murine, UniProt Q60838 1-736, Lys446Met)
T2 sequence (looked up): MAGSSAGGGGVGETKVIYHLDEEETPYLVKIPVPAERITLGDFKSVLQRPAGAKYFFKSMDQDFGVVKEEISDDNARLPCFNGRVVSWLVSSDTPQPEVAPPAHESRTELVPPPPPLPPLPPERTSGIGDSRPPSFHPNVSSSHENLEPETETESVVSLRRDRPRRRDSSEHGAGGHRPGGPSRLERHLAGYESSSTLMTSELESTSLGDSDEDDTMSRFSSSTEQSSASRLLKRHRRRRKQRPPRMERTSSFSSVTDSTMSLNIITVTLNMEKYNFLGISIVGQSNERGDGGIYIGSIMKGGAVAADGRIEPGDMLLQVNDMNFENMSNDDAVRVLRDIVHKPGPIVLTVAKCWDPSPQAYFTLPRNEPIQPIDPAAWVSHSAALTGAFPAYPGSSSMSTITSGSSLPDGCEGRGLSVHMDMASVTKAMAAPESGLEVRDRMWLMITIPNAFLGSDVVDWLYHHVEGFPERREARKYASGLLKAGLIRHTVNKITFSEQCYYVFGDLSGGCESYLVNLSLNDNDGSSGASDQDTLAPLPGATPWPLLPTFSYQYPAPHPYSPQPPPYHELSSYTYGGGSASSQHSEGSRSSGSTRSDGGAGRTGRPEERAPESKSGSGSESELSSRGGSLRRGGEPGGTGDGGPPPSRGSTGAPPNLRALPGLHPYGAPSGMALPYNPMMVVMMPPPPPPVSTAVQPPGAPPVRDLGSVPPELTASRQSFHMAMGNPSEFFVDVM

[3] = molecular target: T3, Dvl2 Lys446Ala (construct not stated) (murine, UniProt Q60838 1-736, Lys446Ala)
T3 sequence (looked up): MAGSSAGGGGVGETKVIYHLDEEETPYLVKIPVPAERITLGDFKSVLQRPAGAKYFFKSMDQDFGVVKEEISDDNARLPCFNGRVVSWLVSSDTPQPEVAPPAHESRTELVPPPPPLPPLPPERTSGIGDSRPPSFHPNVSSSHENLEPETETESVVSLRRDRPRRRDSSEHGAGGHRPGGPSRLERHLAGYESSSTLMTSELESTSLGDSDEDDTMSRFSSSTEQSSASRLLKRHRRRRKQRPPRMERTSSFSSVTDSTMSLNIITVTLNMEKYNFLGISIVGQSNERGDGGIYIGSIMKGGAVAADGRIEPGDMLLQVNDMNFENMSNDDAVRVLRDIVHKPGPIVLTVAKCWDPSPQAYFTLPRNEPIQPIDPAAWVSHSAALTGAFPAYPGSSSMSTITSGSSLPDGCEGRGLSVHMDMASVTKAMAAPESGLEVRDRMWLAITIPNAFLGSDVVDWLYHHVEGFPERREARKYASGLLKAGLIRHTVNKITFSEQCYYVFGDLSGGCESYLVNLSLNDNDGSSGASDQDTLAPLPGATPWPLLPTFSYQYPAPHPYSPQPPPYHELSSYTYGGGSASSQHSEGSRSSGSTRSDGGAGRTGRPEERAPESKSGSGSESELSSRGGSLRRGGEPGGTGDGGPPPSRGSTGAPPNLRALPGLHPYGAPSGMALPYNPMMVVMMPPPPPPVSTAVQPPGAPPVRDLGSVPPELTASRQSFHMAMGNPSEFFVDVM

GST-μ2C K405A = molecular target: T4, GST-μ2C K405A (rat, UniProt P84092 170-435, Lys405 to alanine); test: pull-down
T4 sequence (looked up): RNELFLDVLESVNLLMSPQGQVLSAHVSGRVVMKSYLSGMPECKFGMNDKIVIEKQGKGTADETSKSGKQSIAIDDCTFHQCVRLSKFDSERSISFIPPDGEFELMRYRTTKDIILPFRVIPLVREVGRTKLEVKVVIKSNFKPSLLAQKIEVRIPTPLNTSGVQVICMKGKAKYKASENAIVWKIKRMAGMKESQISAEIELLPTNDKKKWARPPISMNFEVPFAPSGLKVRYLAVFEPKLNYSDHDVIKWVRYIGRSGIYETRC

GST-μ2C K213A = molecular target: T5, GST-μ2C K213A (rat, UniProt P84092 170-435, Lys213 to alanine); test: pull-down
T5 sequence (looked up): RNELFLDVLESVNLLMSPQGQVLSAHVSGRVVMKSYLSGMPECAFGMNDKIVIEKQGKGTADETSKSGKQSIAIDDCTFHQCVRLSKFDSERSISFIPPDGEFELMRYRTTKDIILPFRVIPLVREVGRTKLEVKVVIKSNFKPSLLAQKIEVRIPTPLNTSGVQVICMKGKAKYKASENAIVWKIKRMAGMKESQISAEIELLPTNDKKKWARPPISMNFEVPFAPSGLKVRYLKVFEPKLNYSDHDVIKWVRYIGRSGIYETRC

[4] = molecular target: T6, GST-μ2C wild type (μ2 170–435) (rat, UniProt P84092 170-435); test: pull-down
T6 sequence (looked up): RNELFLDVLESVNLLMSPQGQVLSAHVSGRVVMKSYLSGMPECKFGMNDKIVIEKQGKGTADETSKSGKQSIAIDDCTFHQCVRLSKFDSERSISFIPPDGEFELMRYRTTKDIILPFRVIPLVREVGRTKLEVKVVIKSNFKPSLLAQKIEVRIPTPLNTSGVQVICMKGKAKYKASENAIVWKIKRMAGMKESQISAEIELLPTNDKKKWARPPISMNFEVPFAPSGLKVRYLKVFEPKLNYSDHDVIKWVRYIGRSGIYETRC

GST-μ2C E211A = molecular target: T7, GST-μ2C E211A (rat, UniProt P84092 170-435, Glu211 to alanine); test: pull-down
T7 sequence (looked up): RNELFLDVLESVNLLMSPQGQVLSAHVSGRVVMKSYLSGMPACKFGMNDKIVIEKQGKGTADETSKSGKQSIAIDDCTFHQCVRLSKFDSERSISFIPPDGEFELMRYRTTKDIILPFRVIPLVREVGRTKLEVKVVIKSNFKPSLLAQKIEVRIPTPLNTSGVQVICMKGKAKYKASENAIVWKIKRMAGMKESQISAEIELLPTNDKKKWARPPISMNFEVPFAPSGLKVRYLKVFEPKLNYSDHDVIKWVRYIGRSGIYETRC

GST-μ2C F407A = molecular target: T8, GST-μ2C F407A (rat, UniProt P84092 170-435, Phe407 to alanine); test: pull-down
T8 sequence (looked up): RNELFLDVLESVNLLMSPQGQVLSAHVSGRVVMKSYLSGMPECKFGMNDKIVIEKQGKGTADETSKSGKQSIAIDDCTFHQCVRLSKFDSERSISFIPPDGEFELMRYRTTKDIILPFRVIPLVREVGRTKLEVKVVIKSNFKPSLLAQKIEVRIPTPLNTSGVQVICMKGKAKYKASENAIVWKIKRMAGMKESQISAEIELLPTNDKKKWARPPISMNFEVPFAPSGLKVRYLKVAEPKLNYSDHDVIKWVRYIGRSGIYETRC

- fold decrease of μ2 affinity against wild-type Dvl2 [2]: ~2 fold
- fold decrease of μ2 affinity against wild-type Dvl2 [3]: ~2 fold
B5: μ2 (construct of the experiments not shown is not stated) (natural protein, rat, UniProt P84092 1-435, looked up)
chain: MIGGLFIYNHKGEVLISRVYRDDIGRNAVDAFRVNVIHARQQVRSPVTNIARTSFFHVKRSNIWLAAVTKQNVNAAMVFEFLYKMCDVMAAYFGKISEENIKNNFVLIYELLDEILDFGYPQNSETGALKTFITQQGIKSQHQTKEEQSQITSQVTGQIGWRREGIKYRRNELFLDVLESVNLLMSPQGQVLSAHVSGRVVMKSYLSGMPECKFGMNDKIVIEKQGKGTADETSKSGKQSIAIDDCTFHQCVRLSKFDSERSISFIPPDGEFELMRYRTTKDIILPFRVIPLVREVGRTKLEVKVVIKSNFKPSLLAQKIEVRIPTPLNTSGVQVICMKGKAKYKASENAIVWKIKRMAGMKESQISAEIELLPTNDKKKWARPPISMNFEVPFAPSGLKVRYLKVFEPKLNYSDHDVIKWVRYIGRSGIYETRC

- binding result (GST-μ2C K405A): binds
- binding result (GST-μ2C K213A): binds
- binding result [4]: binds
- binding result (GST-μ2C E211A): binds
- binding result (GST-μ2C F407A): binds
B6: His-tagged Dvl2 407–588 (domain or fragment, murine, UniProt Q60838 407-588, looked up)
chain: SLPDGCEGRGLSVHMDMASVTKAMAAPESGLEVRDRMWLKITIPNAFLGSDVVDWLYHHVEGFPERREARKYASGLLKAGLIRHTVNKITFSEQCYYVFGDLSGGCESYLVNLSLNDNDGSSGASDQDTLAPLPGATPWPLLPTFSYQYPAPHPYSPQPPPYHELSSYTYGGGSASSQHSEG

More lines, now with the values behind:

B1: GST-Dvl2 417–588, wild type (domain or fragment, murine, UniProt Q60838 417-588, looked up)
chain: LSVHMDMASVTKAMAAPESGLEVRDRMWLKITIPNAFLGSDVVDWLYHHVEGFPERREARKYASGLLKAGLIRHTVNKITFSEQCYYVFGDLSGGCESYLVNLSLNDNDGSSGASDQDTLAPLPGATPWPLLPTFSYQYPAPHPYSPQPPPYHELSSYTYGGGSASSQHSEG
- binding result [1]: binds

B2: GST-Dvl2 417–588 R489A (domain or fragment, murine, UniProt Q60838 417-588, looked up)
chain: LSVHMDMASVTKAMAAPESGLEVRDRMWLKITIPNAFLGSDVVDWLYHHVEGFPERREARKYASGLLKAGLIAHTVNKITFSEQCYYVFGDLSGGCESYLVNLSLNDNDGSSGASDQDTLAPLPGATPWPLLPTFSYQYPAPHPYSPQPPPYHELSSYTYGGGSASSQHSEG
- binding result [1]: binds

B3: GST-Dvl2 417–588 N451A (domain or fragment, murine, UniProt Q60838 417-588, looked up)
chain: LSVHMDMASVTKAMAAPESGLEVRDRMWLKITIPAAFLGSDVVDWLYHHVEGFPERREARKYASGLLKAGLIRHTVNKITFSEQCYYVFGDLSGGCESYLVNLSLNDNDGSSGASDQDTLAPLPGATPWPLLPTFSYQYPAPHPYSPQPPPYHELSSYTYGGGSASSQHSEG
- binding result [1]: binds

B4: GST-Dvl2 417–588 D441K (domain or fragment, murine, UniProt Q60838 417-588, looked up)
chain: LSVHMDMASVTKAMAAPESGLEVRKRMWLKITIPNAFLGSDVVDWLYHHVEGFPERREARKYASGLLKAGLIRHTVNKITFSEQCYYVFGDLSGGCESYLVNLSLNDNDGSSGASDQDTLAPLPGATPWPLLPTFSYQYPAPHPYSPQPPPYHELSSYTYGGGSASSQHSEG
- binding result [1]: binds
